Among the data in publication PMC9452428, “Molecular study on recombinant cold-adapted, detergent- and alkali stable esterase (EstRag) from Lysinibacillus sp.: a member of family VI” (World Journal of Microbiology & Biotechnology, 2022) are Km, kcat and kcat/Km values, retold here.

For orientation: Km means the substrate concentration at which the rate is half of its maximum. In general, kcat refers to the maximal rate divided by the concentration of active sites. Broadly, the kcat/Km is the second-order rate constant that governs catalysis at low substrate concentration.

The series has as its system CC(=O)Oc1ccc([N+](=O)[O-])cc1. Briefly: purified protein. As to conditions: 50 mM Tris-HCl pH 8.0, room temperature, substrate 0.0015-3.0 mM.

Consider EstRag (Lysinibacillus sp. YS11), for which the Km is 31 µM, the kcat was 20.4 s⁻¹ and the specificity constant (kcat/Km) worked out at 658000 M⁻¹ s⁻¹.
